Experimental data as given in PMC4430316, “Differential Phosphorylation of RNA Polymerase III and the Initiation Factor TFIIIB in Saccharomyces cerevisiae” (PLoS ONE, 2015).

Target: T1, Rpc160-HA (S. cerevisiae, UniProt P04051 1-1460)
T1 construct: Rpc160 (C160), largest subunit of RNA polymerase III, S. cerevisiae; Precipitated from cell extract, so other pol III subunits are probably present with it; also called C160-3HA; largest subunit of pol III; not shown: 3HA, C-terminal, kept
T1 sequence (looked up): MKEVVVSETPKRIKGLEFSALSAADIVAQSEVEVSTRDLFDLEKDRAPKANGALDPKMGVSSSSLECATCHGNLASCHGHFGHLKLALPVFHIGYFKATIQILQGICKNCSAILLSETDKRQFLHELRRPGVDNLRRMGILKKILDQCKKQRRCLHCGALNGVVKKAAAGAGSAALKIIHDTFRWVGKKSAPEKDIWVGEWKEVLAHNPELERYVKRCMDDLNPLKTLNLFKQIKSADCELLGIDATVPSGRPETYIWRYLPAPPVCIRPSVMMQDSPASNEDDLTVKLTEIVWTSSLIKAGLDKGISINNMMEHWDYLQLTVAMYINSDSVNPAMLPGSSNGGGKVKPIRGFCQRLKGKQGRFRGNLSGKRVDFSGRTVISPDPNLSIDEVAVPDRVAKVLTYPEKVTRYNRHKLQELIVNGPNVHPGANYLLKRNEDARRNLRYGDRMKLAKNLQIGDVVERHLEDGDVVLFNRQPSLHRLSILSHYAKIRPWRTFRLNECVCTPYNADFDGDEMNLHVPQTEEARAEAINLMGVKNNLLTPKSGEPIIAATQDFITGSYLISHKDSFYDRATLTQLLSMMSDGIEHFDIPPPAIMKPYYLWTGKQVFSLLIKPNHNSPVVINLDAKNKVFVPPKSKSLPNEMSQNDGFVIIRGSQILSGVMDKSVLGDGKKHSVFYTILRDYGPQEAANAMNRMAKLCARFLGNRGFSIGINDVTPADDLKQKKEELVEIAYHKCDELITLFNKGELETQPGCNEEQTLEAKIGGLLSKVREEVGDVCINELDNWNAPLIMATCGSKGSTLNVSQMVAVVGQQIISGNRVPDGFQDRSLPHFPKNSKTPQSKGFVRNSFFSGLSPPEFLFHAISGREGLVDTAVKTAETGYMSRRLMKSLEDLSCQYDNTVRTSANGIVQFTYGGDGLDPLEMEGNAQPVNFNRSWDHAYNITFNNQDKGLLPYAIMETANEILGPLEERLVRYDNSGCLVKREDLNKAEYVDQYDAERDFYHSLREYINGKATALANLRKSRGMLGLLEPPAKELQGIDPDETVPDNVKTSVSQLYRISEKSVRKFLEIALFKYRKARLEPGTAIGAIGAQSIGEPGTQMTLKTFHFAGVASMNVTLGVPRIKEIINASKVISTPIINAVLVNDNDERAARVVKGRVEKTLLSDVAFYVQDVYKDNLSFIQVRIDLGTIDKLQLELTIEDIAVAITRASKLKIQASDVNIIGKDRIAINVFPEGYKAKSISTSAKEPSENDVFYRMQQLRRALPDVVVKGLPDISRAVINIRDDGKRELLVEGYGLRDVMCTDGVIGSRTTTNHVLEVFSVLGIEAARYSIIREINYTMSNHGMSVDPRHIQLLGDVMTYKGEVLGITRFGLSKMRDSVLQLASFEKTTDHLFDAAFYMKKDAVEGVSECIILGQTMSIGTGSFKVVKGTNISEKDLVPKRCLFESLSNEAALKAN
Test: co-IP; Rpc160-HA precipitated with HA monoclonal antibody 12CA5 and protein G-Sepharose from yeast extracts (glass bead breakage, KBC100 buffer with protease and phosphatase inhibitors); Maf1 detected with polyclonal Maf1 antibody, Maf1myc with anti-myc; cells treated with rapamycin or untreated; also in BDP1 wild-type and BDP1-4SA strains (S4 Fig)
Details: partners not purified

Binder	fold increase of Maf1 co-immunoprecipitated with Rpc160 in rapamycin-treated against untreated cells	fold increase of Maf1myc co-immunoprecipitated with Rpc160 in rapamycin-treated against untreated cells
Maf1 (natural protein, S. cerevisiae, UniProt P41910 1-395, looked up, Maf1, repressor of RNA polymerase III transcription, S. cerevisiae; untagged, detected with a polyclonal Maf1 antibody; Phosphorylation state differs between control and rapamycin-treated cells; also called untagged Maf1; source: endogenous, yeast cell extract) MKFIDELDIERVNQTLNFETNDCKIVGSCDIFTTKAVASDRKLYKTIDQHLDTILQENENYNATLQQQLAAPETNQSPCSSPFYSNRRDSNSFWEQKRRISFSEYNSNNNTNNSNGNSSNNNNYSGPNGSSPATFPKSAKLNDQNLKELVSNYDSGSMSSSSLDSSSKNDERIRRRSSSSISSFKSGKSSNNNYSSGTATNNVNKRRKSSINERPSNLSLGPFGPINEPSSRKIFAYLIAILNASYPDHDFSSVEPTDFVKTSLKTFISKFENTLYSLGRQPEEWVWEVINSHMTLSDCVLFQYSPSNSFLEDEPGYLWNLIGFLYNRKRKRVAYLYLICSRLNSSTGEVEDALAKKPQGKLIIDDGSNEYEGEYDFTYDENVIDDKSDQEESLQ	~13 fold	–
Maf1myc (natural protein, S. cerevisiae, UniProt P41910 1-395, looked up, Maf1, repressor of RNA polymerase III transcription, S. cerevisiae; also called Maf1-9myc; C-terminal myc-tagged Maf1) MKFIDELDIERVNQTLNFETNDCKIVGSCDIFTTKAVASDRKLYKTIDQHLDTILQENENYNATLQQQLAAPETNQSPCSSPFYSNRRDSNSFWEQKRRISFSEYNSNNNTNNSNGNSSNNNNYSGPNGSSPATFPKSAKLNDQNLKELVSNYDSGSMSSSSLDSSSKNDERIRRRSSSSISSFKSGKSSNNNYSSGTATNNVNKRRKSSINERPSNLSLGPFGPINEPSSRKIFAYLIAILNASYPDHDFSSVEPTDFVKTSLKTFISKFENTLYSLGRQPEEWVWEVINSHMTLSDCVLFQYSPSNSFLEDEPGYLWNLIGFLYNRKRKRVAYLYLICSRLNSSTGEVEDALAKKPQGKLIIDDGSNEYEGEYDFTYDENVIDDKSDQEESLQ	–	< 2 fold
